Results taken from the supplement of paper PMC9170038.

Tested on: MS2 coat protein
Assay: apparent KD of MS2 coat protein; designed switch direction (-1 OFF switch, 1 ON switch): -1; higher = weaker reporter binding
How it was run: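 SNAP-549-labelled MS2 coat protein was titrated, doubling from 0.7 or 1.5 nM to 3 µM, over designed RNA switches transcribed on Illumina chips by stalled E. coli RNA polymerase. Runs were done without input, with 200 uM small-molecule ligand, or with an oligonucleotide input. Apparent KD is the per-design median over clusters of curve-fitted normalised fluorescence.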

[1] = Eterna round: R95, input ligand: microRNA oligo, concentration not stated
[2] = input ligand: microRNA oligo, concentration not stated
[3] = Eterna round: R95, input ligand: FMN 200 uM
[4] = Eterna round: R95, input ligand: none

Sequence | apparent KD of MS2 coat protein [1] [µM] | apparent KD of MS2 coat protein (input ligand: FMN 200 uM) [µM] | apparent KD of MS2 coat protein [2] [µM] | apparent KD of MS2 coat protein (input ligand: none) [µM] | apparent KD of MS2 coat protein [3] [µM] | apparent KD of MS2 coat protein [4] [µM]
UGGUGUGAAGGAUAUACAUGAGGAUCACCCAUGUAUGAGGUGUGUGUUGAGGUGGAGGGUAGAAGGUCAGGUGG [JR_Exclusion3_Sub013] (puzzle: Exclusion 3) | 0.0322 | – | – | – | – | –
UGUACUAACACGAUAGUGUUAGUACUAUAAGCUUGUGUUACAUGAGGAUCACCCAUGUCCUCAUAAGCUCGUCUUGA [Mat - Sensor v3 - Turn-off var 2 - D93] (Eterna round: R96, puzzle: Sensor v3, turn-off variant 2) | – | 0.0368 | 0.472 | 0.0389 | – | –
UGUACUAACACGAUAGUGUUAGUACUAUAAGCUUGUGUUACAUGAGGAUCACCCAUGUCCUCAUAAGCUCGUCUUGA [Mat - Sensor v3 - Turn-off var 2 - D93] (puzzle: Sensor v3, turn-off variant 2) | 0.713 | – | – | – | 0.0323 | 0.0312
UGUACUAUGCGAGCUGACUUGCGUAGUGCAGCAGGUGUUACAUGAGGAUCACCCAUGUCCUCAUUUGCUCGUCUUAU [SL-sv3-2.04 JL mod] (puzzle: Sensor v3, turn-off variant 2) | 0.231 | – | – | – | 0.289 | 0.2
UGUGCGUAUGUGAGGAUAUGCUGGUCCUUGGAUCAGCAGAAGGCACAUGAGGAUCACCCAUGUGGUGUCGUACG [salish99_Bmod_Ex4_008] (puzzle: Brourd's mod of Exclusion 4) | 0.0969 | – | – | – | – | –
UGUUAAGCAGGAUAUACGUUGUCCUAUUAAACUAGUGAAGGACAUGAGGAUCACCCAUGUAGAAGGGCUAAGCG [Eternabot (L2) Solution 70] (Eterna round: R97, puzzle: Exclusion 2) | – | 0.0852 | – | 0.0837 | – | –
UGUUGUCGCGCAGGAUAUGAGGAUCACCCAUAUAAAGGAUAUGAAAAGAAGGUUCUGAGGAUCACCCAGAAGGGCGGGACAACU [pwkr exNG2 2xF5 2xFMN.18] (Eterna round: R96, puzzle: Exclusion NG 2) | – | 0.347 | 0.049 | 0.0626 | – | –
UGUUGUCGCGUAGGAUAUGAGGAUCACCCAUAUAGAGGAUAUGAAAAGAAGGCUCUGAGGAUUACCCAGAAGGACGGGACAACU [pwkr exNG2 2xF5 2xFMN.22] (Eterna round: R96, puzzle: Exclusion NG 2) | – | 1.18 | 0.132 | 0.155 | – | –
UGUUGUUACGCAGGAUAUGAGGAUCACCCAUAUCAGGAUAUCGAAAGAGAACUUCUGAGGAUCACCCAGAAGGGCGGGUUAACA [pwkr exNG2 2xF5 2xFMN.38] (Eterna round: R96, puzzle: Exclusion NG 2) | – | 0.0169 | 0.0136 | 0.0212 | – | –
UGUUGUUACGCAGGAUAUUGUCAACAGGCAAUAGGAUAUCCGAAAGGAGAAGGAUCGCCAACAGGCGAGAAGGGCGGGUUAACA [pwkr exNG2 2xF7 2xFMN.1] (Eterna round: R96, puzzle: Exclusion NG 2) | – | 0.133 | 1.58 | 2.63 | – | –
UGUUGUUACGUAGGAUAUGGCCAACAGGCCCUAGGAUAUGCGAAAGCAGAAGGAGCGCCAACAGGCGAGAAGGACGGGUUAACA [pwkr exNG2 2xF7 2xFMN.15] (Eterna round: R96, puzzle: Exclusion NG 2) | – | 0.0502 | 0.0782 | 0.0605 | – | –
UGUUGUUCAGGAUAUGAUGUAUAAUACAUGAGGAUCACCCAUGUAGAUCCUGAAUUAGCGUCAGAAGGGAAUGUUG [salish99_ex5_r4_104] (Eterna round: R97, puzzle: Exclusion 5) | – | 0.018 | – | 0.0211 | – | –
UGUUGUUCAGGAUAUGAUGUAUUAUACAUGAGGAUCACCCAUGUGGGUCCUGAUUUGGCGUCAGAAGGGAAUGUUG [salish99_ex5_r4_110] (Eterna round: R97, puzzle: Exclusion 5) | – | 0.205 | – | 0.15 | – | –
UGUUGUUGAUAGGAUAUACUUGUAGGAGUAGGAGUAGAAGGAUCUACAUGAGGAUCACCCAUGUAGGAGUGAGA [JR_E6_Sub003] (puzzle: Exclusion 6) | 0.0166 | – | – | – | 0.0182 | 0.0157
UGUUGUUGAUAGGAUAUACUUGUAGGAGUUGUAGUAGAAGGAUCUACAUGAGGAUCACCCAUGUAGGAGUGAGU [JR_E6_Sub004] (puzzle: Exclusion 6) | 0.0156 | – | – | – | – | –
UUAAACGGAGGAUAUACAUUUUUUUUAUUAUCCUCAUUAAAACAUGAGGAUCACCCAUGUAGAAGGCCGAAAUU [Mat - Exclusion 2 - Mod of Hog - D86] (puzzle: Exclusion 2) | 0.0915 | – | – | – | – | –
UUAAAUCAUGUAGGAUAUGCGUGGCGAAGCUAUGCAGAAGGACAUGAGGAUCACCCAUGUUCUAGCGUCUGCGAACAGAUGCAA [Mat - Exclusion NG 1 - Mod of JL - D1] (Eterna round: R96, puzzle: Exclusion NG 1) | – | 0.12 | 0.0122 | 0.0169 | – | –
UUAAAUCAUGUAGGAUAUGCGUGGCGAAGCUAUGCAGAAGGACAUGAGGAUCACCCAUGUUCUUGCGUCUGCGUACAGAUGCAA [JL ENG1 1.09] (Eterna round: R96, puzzle: Exclusion NG 1) | – | 0.118 | 0.026 | 0.0372 | – | –
UUAACAUGCUGGUGAUCAUACAUGAGGAUCACCCAUGUAACAAGCUUUUUGCUCGUCUUAAUUUAAUUGAUUACUAG [Stov1/8-A1] (Eterna round: R97, puzzle: Sensor, turn-off variant 1) | – | 0.12 | – | 0.134 | – | –
UUAAUGACUGUGAGGAUAUCGGAUAGAUAGAUAUUUGAGAAGGUACAUGAGGAUCACCCAUGUGUGAUUAGAGA [Brourd's EX4 #66] (Eterna round: R97, puzzle: Brourd's mod of Exclusion 4) | – | 0.246 | – | 0.253 | – | –
UUAAUGAUUGUGAGGAUAUUUCAUAGAUAGAUAUUAGAGAAGGUACAUGAGGAUCACCCAUGUGUGAUUAGAGA [Brourd's EX4 #71] (Eterna round: R97, puzzle: Brourd's mod of Exclusion 4) | – | 0.0897 | – | 0.0935 | – | –
UUAAUGUCAGGAUAUGCUUAAUAUAUUAUAUUAUAAUAUAUACAUGAGGAUCACCCAUGUAGAAGGGACAUUAU [LRO-Excl2-03-Fireball XL5] (Eterna round: R97, puzzle: Exclusion 2) | – | 0.0268 | – | 0.0382 | – | –
UUAAUGUGAGGAUAUCAGGUGUGCUAGCGUACUGGUACAUCUGAGAAGGCACAUGAGGAUCACCCAUGUUCCUG [JL-ex4-3.28 Brourd mod] (puzzle: Exclusion 4) | 0.0206 | – | – | – | – | –
UUAAUUCGGAUUCUUGAAAUACAUGAGGAUCACCCAUGUUCACAGGAUAUUGAUUAUGUUAGUAACAAGAAGGGUGUAACAUAU [JR_ExcNG3_Sub036] (Eterna round: R96, puzzle: Exclusion NG 3) | – | 0.0871 | 0.031 | 0.0287 | – | –
UUACGACAUGAGGAUCACCCAUGUUAGGAUAUGUGGCGAGAGCGCUAGCCUCGGGCCAACAGAAGGAAUAGGGC [Eternabot (L2) Solution 35] (Eterna round: R97, puzzle: Exclusion 1) | – | 0.0534 | – | 0.0585 | – | –
UUACUAUGUCGCCUAAUAGCUUUUUGCUCGUCUUAUAUUACAUGAGGAUCACCCAUGUAGAUCAUGUGGCGUGACCU [JL ViennaUCT Maridi mod 4] (puzzle: Sensor v3, turn-off variant 2) | 0.0391 | – | – | – | 0.246 | 0.217
UUACUAUGUCGCUUAAUAGCUUUUUGCUCGUCUUAUAUUACAUGAGGAUCACCCAUGUAGAUCAUGUGGCGUGACCU [JL ViennaUCT Maridi mod 6] (puzzle: Sensor v3, turn-off variant 2) | 0.036 | – | – | – | 0.247 | 0.237
UUAGAUUAUGAAGGAUAUGGAUCUUAUUAUUAACCAGAAGGUCAACUCAACAUGAGGAUCACCCAUGUAUAAAGGGUAUUAGUU (Eterna round: R96, puzzle: Exclusion NG 1) | – | – | 0.109 | – | – | –
UUAUACGUUGAGGAUAUGCGACUGUUUUAAGUUGUAGAAGGCGAUACAUGAGGAUCACCCAUGUUUAUGGGCAU [LRO-Ex6-12] (puzzle: Exclusion 6) | 0.169 | – | – | – | – | –
UUAUAUAGGUAGGAUAUCGAUUUUAAUUAAUUUCGAGAAGGGUCAACAUGAGGAUCACCCAUGUCAGCAUGUAU [LRO-Excl6-05-Rocketman] (Eterna round: R97, puzzle: Exclusion 6) | – | 0.0456 | – | 0.0514 | – | –
